Here are results for 1 variant from IntAct's records for PubMed 25609649.

B1: F-box/WD repeat-containing protein 11 (Homo sapiens), Q9UKB1 (parent)
chain: MEPDSVIEDKTIELMCSVPRSLWLGCANLVESMCALSCLQSMPSVRCLQISNGTSSVIVSRKRPSEGNYQKEKDLCIKYFDQWSESDQVEFVEHLISRMCHYQHGHINSYLKPMLQRDFITALPEQGLDHIAENILSYLDARSLCAAELVCKEWQRVISEGMLWKKLIERMVRTDPLWKGLSERRGWDQYLFKNRPTDGPPNSFYRSLYPKIIQDIETIESNWRCGRHNLQRIQCRSENSKGVYCLQYDDEKIISGLRDNSIKIWDKTSLECLKVLTGHTGSVLCLQYDERVIVTGSSDSTVRVWDVNTGEVLNTLIHHNEAVLHLRFSNGLMVTCSKDRSIAVWDMASATDITLRRVLVGHRAAVNVVDFDDKYIVSASGDRTIKVWSTSTCEFVRTLNGHKRGIACLQYRDRLVVSGSSDNTIRLWDIECGACLRVLEGHEELVRCIRFDNKRIVSGAYDGKIKVWDLQAALDPRAPASTLCLRTLVEHSGRVFRLQFDEFQIISSSHDDTILIWDFLNVPPSAQNETRSPSRTYTYISR
partner: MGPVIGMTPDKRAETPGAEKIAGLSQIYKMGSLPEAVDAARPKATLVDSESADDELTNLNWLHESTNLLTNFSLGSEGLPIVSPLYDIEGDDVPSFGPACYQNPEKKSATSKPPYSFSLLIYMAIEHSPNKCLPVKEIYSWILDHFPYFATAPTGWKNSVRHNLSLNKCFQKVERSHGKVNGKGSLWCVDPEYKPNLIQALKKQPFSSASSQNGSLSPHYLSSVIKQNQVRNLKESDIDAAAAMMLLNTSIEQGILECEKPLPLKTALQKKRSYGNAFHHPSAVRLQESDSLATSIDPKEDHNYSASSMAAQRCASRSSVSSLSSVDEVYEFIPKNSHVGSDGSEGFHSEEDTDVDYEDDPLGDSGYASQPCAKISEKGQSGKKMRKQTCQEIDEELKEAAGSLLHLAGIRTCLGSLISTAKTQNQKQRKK

The experiment covers variants of B1. The conditions noted are these: with foxn2_human FOXN2, P32314.
For the variant L474A, the “effect of a mutation on the interaction” value is on record as “disrupting interaction”.
